Reference: patent publication US20180258153A1 (Novo Nordisk, published 2018)
Starred links: 1 amine or outer side, 2 acyl side, 3 side chain; linkers in the order of their positions; H or OH if unused. Non-standard residues stand in square brackets, D forms with d. Groups on a side chain read outwards from the residue. No end group written: not given here. *: point of attachment. C20 diacid = O=C(O)CCCCCCCCCCCCCCCCCCC(=O)*; γGlu = O=C(O)[C@H](CCC(=O)[*:2])N[*:1]; Desaminohistidyl = O=C(CCc1c[nH]cn1)*; Trx = NC[C@H]1CC[C@H](C(=O)O)CC1; AEEA = NCCOCCOCC(=O)O; Aib = CC(C)(N)C(=O)O

Assays:
human GLP-1 receptor [1] = molecular target: T1, human GLP-1 receptor (human, UniProt P43220 24-463); experiment: SPA competition, displacement of 125I-GLP-1(7-36)NH2 from BHK membranes with human GLP-1 receptor; low HSA (max. 0.001%)
T1 construct: whole, on cells
Description: (§1) For the receptor binding assay in the presence of low HSA (0.005%) 50 μl of the assay buffer was added to each well of an assay plate. […] For the receptor binding assay in the presence of high HSA (2%) 50 μl of the 8% albumin stock was added to each well of an assay plate. […] Cell membrane aliquots were thawed and diluted to their working concentration. Fifty μl were added to each well in the assay plate. […] WGA SPA beads were suspended in assay buffer at 20 mg/ml. The suspension was diluted to 10 mg/ml in assay buffer just prior to addition to the assay plate. Fifty μl were added to each well in the assay plate. […] A 25 μl aliquot was reserved for measuring total counts/well. […] The assay plate was incubated for 2 h at 30° C. […] The assay plate was centrifuged for 10 min. […] The assay plate was read in a Packard TopCount NXT instrument.
(§2) The data from the TopCount instrument were transferred to GraphPad Prism software. Individual replicates were analysed using non-linear regression.

human GLP-1 receptor [2] = molecular target: T1, human GLP-1 receptor; experiment: SPA competition, displacement of 125I-GLP-1(7-36)NH2 from BHK membranes with human GLP-1 receptor; high HSA (2.0%)
Description: as §1, §2

human GLP-1 receptor [3] = molecular target: T1, human GLP-1 receptor; experiment: cell-based or functional assay

Binder | IC50 (human GLP-1 receptor [1]) [nM] | IC50 (human GLP-1 receptor [2]) [nM] | EC50 (pM), in vitro potency, CRE luciferase reporter in BHK cells expressing the human GLP-1 receptor (human GLP-1 receptor [3]) [pM]
[Desaminohistidyl][Aib]EGTFTSDVSSYLEEQAAREFIAWLVRGRGGK([AEEA-AEEA-AEEA-AEEA-Lys-code γGlu-Trx-C20 diacid),(γGlu-Trx-C20 diacid]) (also: branched side chain on Lys39: two identical arms on eps-Lys(Bis), also called Chem. 26; [Imp7,Aib8,Glu22,Arg26,Arg34]-GLP-1-(7-37)-peptidyl-Gly-N{Epsilon}-acylated Lys) [GLP-1 derivative of Example 6] | 1 | 140 | 150
HXEGTFTSDVSSYLEEQAAREFIAWLVRGRK (not fully specified; Aib at position 8 (GLP-1 numbering); epsilon-amino of Lys37 acylated with branched side chain: Pre-linker Ado; Branched linker eps-Lys(Bis); two Post-linkers Trx-gGlu-2xAdo, each carrying a C20 diacid Protractor, also called Chem. 21; N{Epsilon-37}-acylated [Aib8,Glu22,Arg26,Arg34,Lys37]-GLP-1-(7-37)-peptide) [GLP-1 derivative of Example 1] | – | 140 | 77
HXEGTFTSDVSSYLEEQAAREFIAWLVRGRK (Aib at position 8 (GLP-1 numbering); epsilon-amino of Lys37 acylated with branched side chain: Pre-linker 2xAdo; Branched linker eps-Lys(Bis); two Post-linkers Trx-gGlu, each carrying a C20 diacid Protractor, also called Chem. 31; N{Epsilon-37}-acylated [Aib8,Glu22,Arg26,Arg34,Lys37]-GLP-1-(7-37)-peptide) [GLP-1 derivative of Example 11] | 1.5 | 150 | 130
HXEGTFTSDVSSYLEEQAAREFIAWLVRGRK (not fully specified; Aib at position 8 (GLP-1 numbering); epsilon-amino of Lys37 acylated with branched side chain: Pre-linker 4xeps-Lys; Branched linker eps-Lys(Bis); two Post-linkers Trx-gGlu, each carrying a C20 diacid Protractor, also called Chem. 30; N{Epsilon-37}-acylated [Aib8,Glu22,Arg26,Arg34,Lys37]-GLP-1-(7-37)-peptide) [GLP-1 derivative of Example 10] | 19 | – | 150
HXEGTFTSDVSSYLEEQAAREFIAWLVRGRK (not fully specified; Aib at position 8 (GLP-1 numbering); epsilon-amino of Lys37 acylated with branched side chain: Pre-linker 4xAdo; Branched linker eps-Lys(Bis); two Post-linkers Trx-gGlu-Ado, each carrying a C20 diacid Protractor, also called Chem. 41; N{Epsilon-37}-acylated [Aib8,Glu22,Arg26,Arg34,Lys37]-GLP-1-(7-37)-peptide) [GLP-1 derivative of Example 21] | 1.5 | 19 | 38
HXEGTFTSDVSSYLEEQAAREFIAWLVRGRK (not fully specified; Aib at position 8 (GLP-1 numbering); epsilon-amino of Lys37 acylated with branched side chain: Pre-linker dPEG6; Branched linker eps-Lys(Bis); two Post-linkers Trx-gGlu, each carrying a C20 diacid Protractor, also called Chem. 23; N{Epsilon-37}-acylated [Aib8,Glu22,Arg26,Arg34,Lys37]-GLP-1-(7-37)-peptide) [GLP-1 derivative of Example 3] | – | 180 | 160
HXEGTFTSDVSSYLEEQAAREFIAWLVRGRK (not fully specified; Aib at position 8 (GLP-1 numbering); epsilon-amino of Lys37 acylated with branched side chain: Pre-linker dPEG12; Branched linker eps-Lys(Bis); two Post-linkers Trx-gGlu, each carrying a C20 diacid Protractor, also called Chem. 24; N{Epsilon-37}-acylated [Aib8,Glu22,Arg26,Arg34,Lys37]-GLP-1-(7-37)-peptide) [GLP-1 derivative of Example 4] | 0.78 | 51 | 110
HXEGTFTSDVSSYLEEQAAREFIAWLVRGRK (not fully specified; Aib at position 8 (GLP-1 numbering); epsilon-amino of Lys37 acylated with branched side chain: Pre-linker dPEG20; Branched linker eps-Lys(Bis); two Post-linkers Trx-gGlu, each carrying a C20 diacid Protractor, also called Chem. 25; N{Epsilon-37}-acylated [Aib8,Glu22,Arg26,Arg34,Lys37]-GLP-1-(7-37)-peptide) [GLP-1 derivative of Example 5] | 0.91 | 9.7 | 53
HXEGTFTSDVSSYLEEQAAREFIAWLVRGRK (not fully specified; Aib at position 8 (GLP-1 numbering); epsilon-amino of Lys37 acylated with branched side chain: Pre-linker 4xAdo; Branched linker eps-Lys(Bis); two Post-linkers Trx-gGlu-2xAdo, each carrying a C20 diacid Protractor, also called Chem. 35; N{Epsilon-37}-acylated [Aib8,Glu22,Arg26,Arg34,Lys37]-GLP-1-(7-37)-peptide) [GLP-1 derivative of Example 15] | 0.87 | 48 | 48
HXEGTFTSDVSSYLEEQAAREFIAWLVRGRK (Aib at position 8 (GLP-1 numbering); epsilon-amino of Lys37 acylated with branched side chain: Pre-linker 3xAdo; Branched linker eps-Lys(Bis); two Post-linkers Trx-gGlu-3xAdo, each carrying a C20 diacid Protractor (the printed name gives (4R) for the gGlu of one arm and (4S) for the other), also called Chem. 42; N{Epsilon-37}-acylated [Aib8,Glu22,Arg26,Arg34,Lys37]-GLP-1-(7-37)-peptide) [GLP-1 derivative of Example 22] | 1.4 | 63 | 12
HXEGTFTSDVSSYLEEQAAREFIAWLVRGRK (not fully specified; Aib at position 8 (GLP-1 numbering); epsilon-amino of Lys37 acylated with branched side chain: Pre-linker 2xeps-Lys; Branched linker eps-Lys(Bis); two Post-linkers Trx-gGlu, each carrying a C20 diacid Protractor, also called Chem. 29; N{Epsilon-37}-acylated [Aib8,Glu22,Arg26,Arg34,Lys37]-GLP-1-(7-37)-peptide) [GLP-1 derivative of Example 9] | 1.8 | 150 | 120
HXEGTFTSDVSSYLEEQAAREFIAWLVRGRK (not fully specified; Aib at position 8 (GLP-1 numbering); epsilon-amino of Lys37 acylated with branched side chain: Pre-linker 2xAdo; Branched linker eps-Lys(Bis); two Post-linkers Trx-gGlu-2xAdo, each carrying a C20 diacid Protractor, also called Chem. 22; N{Epsilon-37}-acylated [Aib8,Glu22,Arg26,Arg34,Lys37]-GLP-1-(7-37)-peptide) [GLP-1 derivative of Example 2] | 0.56 | 49 | 70
HXEGTFTSDVSSYLEEQAAREFIAWLVRGRK (not fully specified; Aib at position 8 (GLP-1 numbering); epsilon-amino of Lys37 acylated with branched side chain: Pre-linker 2xAdo; Branched linker eps-Lys(Bis); two Post-linkers Trx-gGlu-4xAdo, each carrying a C20 diacid Protractor, also called Chem. 34; N{Epsilon-37}-acylated [Aib8,Glu22,Arg26,Arg34,Lys37]-GLP-1-(7-37)-peptide) [GLP-1 derivative of Example 14] | 0.42 | 27 | 19
HXEGTFTSDVSSYLEEQAAREFIAWLVRGRK (Aib at position 8 (GLP-1 numbering); epsilon-amino of Lys37 acylated with branched side chain: Pre-linker 6xAdo; Branched linker eps-Lys(Bis); two Post-linkers Trx-gGlu, each carrying a C20 diacid Protractor, also called Chem. 32; N{Epsilon-37}-acylated [Aib8,Glu22,Arg26,Arg34,Lys37]-GLP-1-(7-37)-peptide) [GLP-1 derivative of Example 12] | 0.63 | 17 | 57
HXEGTFTSDVSSYLEEQAAREFIAWLVRGRK (Aib at position 8 (GLP-1 numbering); epsilon-amino of Lys37 acylated with branched side chain: Pre-linker 4xAdo; Branched linker eps-Lys(Bis); two Post-linkers Trx-gGlu, each carrying a C20 diacid Protractor, also called Chem. 28; N{Epsilon-37}-acylated [Aib8,Glu22,Arg26,Arg34,Lys37]-GLP-1-(7-37)-peptide) [GLP-1 derivative of Example 8] | 1.1 | 45 | 72
HXEGTFTSDVSSYLEEQAAREFIAWLVRGRK (Aib at position 8 (GLP-1 numbering); epsilon-amino of Lys37 acylated with branched side chain: Pre-linker 8xAdo; Branched linker eps-Lys(Bis); two Post-linkers Trx-gGlu, each carrying a C20 diacid Protractor, also called Chem. 33; N{Epsilon-37}-acylated [Aib8,Glu22,Arg26,Arg34,Lys37]-GLP-1-(7-37)-peptide) [GLP-1 derivative of Example 13] | 0.17 | 32 | 47
H[Aib]EGTFTSDVSSYLEEQAAREFIAWLVRKRG (not fully specified (residue 29), also called Chem. 37; N{Epsilon-35}-acylated [Aib8,Glu22,Arg26,Arg34,Lys35]-GLP-1-(7-37)-peptide) [GLP-1 derivative of Example 17] | 0.64 | 77 | 20
H[Aib]EGTFTSDVSSYLEEQAAREFIAWLVRGKG (not fully specified (residue 30), also called Chem. 38; N{Epsilon-36}-acylated [Aib8,Glu22,Arg26,Arg34,Lys36]-GLP-1-(7-37)-peptide) [GLP-1 derivative of Example 18] | 0.68 | 24 | 37
H[Aib]EGTFTSDVSSYLEEQAAREFIAWLVRGRGK (not fully specified (residue 32), also called Chem. 39; N{Alpha}([Aib8,Glu22,Arg26,Arg34]-GLP-1-(7-37)-peptidyl)-N{Epsilon}-acylated Lys) [GLP-1 derivative of Example 19] | 0.69 | 34 | 71
[Desaminohistidyl][Aib]EGTFTSDVSSYLEEQAAREFIAWLVRGRGGK([AEEA-AEEA-Lys-AEEA-AEEA-γGlu-Trx-C20 diacid),(Ado-AEEA-γGlu-Trx-C20 diacid]) (also: branched side chain on Lys39: two identical arms on eps-Lys(Bis), also called Chem. 27; [Imp7,Aib8,Glu22,Arg26,Arg34]-GLP-1-(7-37)-peptidyl-Gly-N{Epsilon}-acylated Lys) [GLP-1 derivative of Example 7] | 0.57 | 54 | 79
